Results from PMC6901522.

Key:
Assay in all cases: NMR
Conditions in all cases: 298 K, 150 mM NaCl, 10 mM acetic acid, 10 mM sodium phosphate, the pH 7.4 point was taken from a sample in TBS, folded, oxidised (C63-C92 disulfide), ligand-free monomer, 215-356 µM protein
[1] = molecular target: His87 (UniProt position 87, GTSEDHQHFTC)
[2] = molecular target: His89 (UniProt position 89, SEDHQHFTCTI)
[3] = molecular target: His53 (UniProt position 53, VHSFSHNVGPG)
[4] = molecular target: His49 (UniProt position 49, PGGVVHSFSHN)

Myeloid-derived growth factor (hMYDGF, C19orf10) (Homo sapiens)
pKa [1]: 6.0 | pKa [2]: 6.8 | pKa [3]: 5.4 | pKa [4]: 6.4
